In US20250027068:
Substitutions are numbered along the chain they refer to.

What was measured:
[1] = target: pooled human IgG (human IgG1,2,3 and 4)

B1: PRT-268 (protein)
chain: MVTSVWTKGVTPPTDFIYGEDVLHAPYKAGQGWYDITKLFNGKDDLLCGAATAGNMLHWWFDQNKEQIENYLKKHPEKQKINFNGEQMFDVKEAIDTKDSQLDSKLFDYFKEKAFPNLSTKHLGVFPDHVIDMFINGYRLSLLNHGPTPVKRGSKDPRGGIFDAVFTRGDQSKLLTNRHDLKNKTLKEISDLIKQELTEGKALGISHTYANGRINHVINLWGADFDAEGNLEAIYVTDSDSNPSIGMKKYFVGVNSSGKVAISAKEIEEDNIGAQVLGLFTLSTGQDIWNQTN
Enzyme Activity Endpoint Assay: Fab′2 [1]: 429 ng/µL
Enzyme Activity Endpoint Assay: Fc [1]: 325 ng/µL
Enzyme Activity Endpoint Assay: IgG [1]: 90 ng/µL
Enzyme Activity Endpoint Assay: scIgG [1]: 282 ng/µL

B2: PRT-307 (protein)
chain: MQITSVWTKGVTPLTPEQFRKNNEDVIHAPYLAHQGWYDITKAFDGKDNLLCGAATAGNMLHWWFDQNKTEIEAYLSKHPEKQKIIFNNQELFDLKAAIDTKDSQTNSQLFNYFRDKAFPNLSARQLGVMPDLVLDMFINGYYLNVGKTQSTDVNRPYQDKDKRGGIFDAVFTRGDQTTLLTARHDLKNKGLNDISTIIKQELTEGRALALSHTYANVSISHVINLWGADFNAEGNLEAIYVTDSDANASIGMKKYFVGRNAHGHVAISAKKIEGENIGAQVLGLFTLSSGKDIWQKLS
Enzyme Activity Endpoint Assay: Fab′2 [1]: 215 ng/µL
Enzyme Activity Endpoint Assay: Fc [1]: 290 ng/µL
Enzyme Activity Endpoint Assay: IgG [1]: 138 ng/µL
Enzyme Activity Endpoint Assay: scIgG [1]: 614 ng/µL

B3: PRT-315 (protein)
chain: B2 chain with K21E, N112D, G147F, N236E, A249P
Enzyme Activity Endpoint Assay: Fab′2 [1]: 981 ng/µL
Enzyme Activity Endpoint Assay: Fc [1]: 408 ng/µL
Enzyme Activity Endpoint Assay: IgG [1]: 0 ng/µL
Enzyme Activity Endpoint Assay: scIgG [1]: 0 ng/µL

B4: PRT-275 (protein)
chain: MVTSVWTKGVTPPTDFIYGEDVLHAPYKAGQGWYDITKLFNGKDNLLCGAATAGNMLHWWFDQNKEQIENYLKKHPEKQKIIFNNQELFDLKAAIDTKDSQLDSKLFDYFKEKAFPNLSTKHLGVFPDHVIDMFINGYRLSLLNHGPTPVKRGSKDKRGGIFDAVFTRGVQSKLLTNRHDLKNKTLKEISDLIKQELTEGKALGISHTYANGRINHVINLWGADFDAEGNLEAIYVTDSDTNPSIGMKKYFVGVNSSGKVAISAKEIEEDNIGAQVLGLFTLSTGQDIWNQTN
Enzyme Activity Endpoint Assay: Fab′2 [1]: 169 ng/µL
Enzyme Activity Endpoint Assay: Fc [1]: 257 ng/µL
Enzyme Activity Endpoint Assay: IgG [1]: 97 ng/µL
Enzyme Activity Endpoint Assay: scIgG [1]: 589 ng/µL

B5: PRT-283 (protein)
chain: MVTSVWTKGVTPPAKFTQGEDVFHAPYDANQGWYDITKTFNGKDDLLCGAATAGNMLHWWFDQNKEKIEAYLKKHPDKQKIMFGDQELLDVRKVINTKGDQTNSELFNYFRDKAFPNLSARRIGVMPDLVLDMFINGYYLNVYKTQTTDVNRTYQEKDRRGGIFDAVFTRGDQSKLLTSRHDFKEKNLKEISDLIKKELTEGKALGLSHTYANVRISHVINLWGADFDSNGNLKAIYVTDSDSNASIGMKKYFVGVNSAGKVAISAKEIKEDNIGAQVLGLFTLSTGQDSWNQTN
Enzyme Activity Endpoint Assay: Fab′2 [1]: 380 ng/µL
Enzyme Activity Endpoint Assay: Fc [1]: 271 ng/µL
Enzyme Activity Endpoint Assay: IgG [1]: 186 ng/µL
Enzyme Activity Endpoint Assay: scIgG [1]: 91 ng/µL

B6: PRT-323 (protein)
chain: MTITSVWTKGVTPPTPEDFRENNEDVLHAPYVANQGWYDITKTFDGKDNLLCGAATAGNMLHWWFDQNKEEIERYLKKHPEKQKIIFNNQEWFDVKAAIDTKDSQTNSKLFNYFRDKAFPNLSARQLGVMPDLVLDMFINGYYLNLPKTQSTDVNRPYQDKDKRGGIFDAVFTRGDQTTLLTARHDLKNKGLNEISDLIKQELTEGKALALSHTYANVRINHVINLWGADFDAEGNLIAIYVTDSDANASIGMKKYAVGVNANGKVAISAKKIEGDNIGAQVLGLFTLSTGQDIWQKLS
Enzyme Activity Endpoint Assay: Fab′2 [1]: 130 ng/µL
Enzyme Activity Endpoint Assay: Fc [1]: 256 ng/µL
Enzyme Activity Endpoint Assay: IgG [1]: 235 ng/µL
Enzyme Activity Endpoint Assay: scIgG [1]: 743 ng/µL

B7: PRT-331 (protein)
chain: B6 chain with W92L, N112D, N121G, M130F, P147G, D176V, A257F, V260R, I294Q
Enzyme Activity Endpoint Assay: Fab′2 [1]: 954 ng/µL
Enzyme Activity Endpoint Assay: Fc [1]: 398 ng/µL
Enzyme Activity Endpoint Assay: IgG [1]: 0 ng/µL
Enzyme Activity Endpoint Assay: scIgG [1]: 0 ng/µL

B8: PRT-251 (protein)
chain: MVTSVWTKGVTPPTNFTYGEDVLHAPYVANQGWYDITKTFNGKDDLLCGAATAGNMLHWWFDQNKEQIENYLKKHPEKQKINFNGEQMFDVKEAIDTKDSQLDSKLFEYFLEKAFPNLSTKHLGVFPDHVIDMFINGYRLSLLNHGPTPVKRGSKDPRGGIFDAVFTRGDQSKLLTNRHDFKEKTLKEISDLIKQELTEGKALGISHTYANVRINHVINLWGADFDAEGNLEAIAVTDSDSNASIGMKKYFVGVNSSGKVAISAKEIEEDNIGAQVLGLFTLSTGQDIWNQTN
Enzyme Activity Endpoint Assay: Fab′2 [1]: 1070 ng/µL
Enzyme Activity Endpoint Assay: Fc [1]: 444 ng/µL
Enzyme Activity Endpoint Assay: IgG [1]: 0 ng/µL
Enzyme Activity Endpoint Assay: scIgG [1]: 0 ng/µL

B9: PRT-259 (protein)
chain: B8 chain with D45N, M88L, L111K, P157K, D170V, A235Y, S241T
Enzyme Activity Endpoint Assay: Fab′2 [1]: 1100 ng/µL
Enzyme Activity Endpoint Assay: Fc [1]: 453 ng/µL
Enzyme Activity Endpoint Assay: IgG [1]: 0 ng/µL
Enzyme Activity Endpoint Assay: scIgG [1]: 0 ng/µL

B10: PRT-252 (protein)
chain: B8 chain with T39L, V212G
Enzyme Activity Endpoint Assay: Fab′2 [1]: 634 ng/µL
Enzyme Activity Endpoint Assay: Fc [1]: 365 ng/µL
Enzyme Activity Endpoint Assay: IgG [1]: 56 ng/µL
Enzyme Activity Endpoint Assay: scIgG [1]: 0 ng/µL

B11: PRT-267 (protein)
chain: B1 chain with L39T, G212V
Enzyme Activity Endpoint Assay: Fab′2 [1]: 1090 ng/µL
Enzyme Activity Endpoint Assay: Fc [1]: 438 ng/µL
Enzyme Activity Endpoint Assay: IgG [1]: 0 ng/µL
Enzyme Activity Endpoint Assay: scIgG [1]: 0 ng/µL

B12: PRT-260 (protein)
chain: B8 chain with D45N, M88L, E108D, L111K, P157K, D170V, A235Y, S241T, A243P
Enzyme Activity Endpoint Assay: Fab′2 [1]: 793 ng/µL
Enzyme Activity Endpoint Assay: Fc [1]: 354 ng/µL
Enzyme Activity Endpoint Assay: IgG [1]: 0 ng/µL
Enzyme Activity Endpoint Assay: scIgG [1]: 0 ng/µL

B13: PRT-291 (protein)
chain: MVTSVWTKGVTPPADFTQGEDVFHAPYVANQGWYDITKTFNGKDDLLCGAATAGNMLHWWFDQNKEYIEAYLKKHPEKQKIMFGDQELLDVRKAINTKGSQKNSELFNYFRDKAFPNLSARRLGVMPDLVLDMFINGYYLNVTKTQTTDVNRTYQEKDKRGGIFDAVFTRGDQSKLLTSRHDFKEKGLKEISDLIKQELTEGKALGLSHTYANVRLNHVINLWGADFDSDGNLKAIYVTDSDSNASIGMKKYFVGVNSSGKVAISAKEIKEDNIGAQVLGLFTLSTGQDIWNQTN
Enzyme Activity Endpoint Assay: Fab′2 [1]: 1020 ng/µL
Enzyme Activity Endpoint Assay: Fc [1]: 420 ng/µL
Enzyme Activity Endpoint Assay: IgG [1]: 0 ng/µL
Enzyme Activity Endpoint Assay: scIgG [1]: 0 ng/µL

B14: PRT-299 (protein)
chain: B13 chain with A14T, T17I, Q18K, V28K, N30G, L216I, N217G
Enzyme Activity Endpoint Assay: Fab′2 [1]: 549 ng/µL
Enzyme Activity Endpoint Assay: Fc [1]: 378 ng/µL
Enzyme Activity Endpoint Assay: IgG [1]: 368 ng/µL
Enzyme Activity Endpoint Assay: scIgG [1]: 0 ng/µL

B15: PRT-243 (protein)
chain: MVTSVWTKGVTPPANFTQGEDVFHAPYVANQGWYDITKLFNGKDDLLCGAATAGNMLHWWFDQNKDQIKRYLEEHPEKQKINFNGEQMFDVKEAIDTKNHQLDSKLFDYFKEKAFPNLSTKHLGVFPDHVIDMFINGYRLSLLNHGPTPVKEGSKDPRGGIFDAVFTRGDQSKLLTSRHDFKEKNLKEISDLIKKELTEGKALGLSHTYANGRINHVINLWGADFDSNGNLKAIYVTDSDSNPSIGMKKYFVGVNSSGKVAISAKEIKEDNIGAQVLGLFTLSTGQDSWNQTN
Enzyme Activity Endpoint Assay: Fab′2 [1]: 967 ng/µL
Enzyme Activity Endpoint Assay: Fc [1]: 430 ng/µL
Enzyme Activity Endpoint Assay: IgG [1]: 25 ng/µL
Enzyme Activity Endpoint Assay: scIgG [1]: 0 ng/µL

B16: PRT-244 (protein)
chain: B15 chain with L39T, D108E, K111L, G212V, Y235A, P243A
Enzyme Activity Endpoint Assay: Fab′2 [1]: 998 ng/µL
Enzyme Activity Endpoint Assay: Fc [1]: 429 ng/µL
Enzyme Activity Endpoint Assay: IgG [1]: 0 ng/µL
Enzyme Activity Endpoint Assay: scIgG [1]: 0 ng/µL

B17: PRT-241 (protein)
chain: B15 chain with L39T, D108E, G212V, P243A
Enzyme Activity Endpoint Assay (purified): Fab'2 (pooled human IgG): 731 ng/µL
Enzyme Activity Endpoint Assay (purified): Fc (pooled human IgG): 406 ng/µL
Enzyme Activity Endpoint Assay (purified): IgG (pooled human IgG): 0 ng/µL
Enzyme Activity Endpoint Assay (purified): scIgG (pooled human IgG): 0 ng/µL
